Assay results as given in PMC4896748, “Ensemble cryo-EM uncovers inchworm-like translocation of a viral IRES through the ribosome” (eLife, 2016).

Molecular target: T1, S. cerevisiae elongation factor eEF2 (C-terminally His6-tagged), bound with GDP and sordarin (S. cerevisiae, UniProt P32324 1-842, diphthamide at 699)
T1 construct: elongation factor 2 (eEF2), S. cerevisiae; residue numbers as in S. cerevisiae eEF2 (H108, H583, H694, Diph699); Complex assembled with eEF2•GTP and sordarin; also called eukaryotic elongation factor 2; translocase; source: yeast TKY675 cells, purified (Ni-NTA, SP Sepharose cation exchange, Superdex 200)
Experiment: cryo-EM structure; 80S•TSV IRES•eEF2•GDP•sordarin complex, five structures (I-V) from one specimen; assembled from 40S (0.8 uM), 60S (0.8 uM), TSV IRES RNA (8 uM), eEF2 (5 uM), sordarin (800 uM), GTP (1 mM); 30°C; 45 mM HEPES·KOH pH 7.5, 10 mM MgCl2, 100 mM KCl, 2.5 mM spermine, 2 mM β-mercaptoethanol
Settings: both partners purified

T1 sequence (P32324 whole entry): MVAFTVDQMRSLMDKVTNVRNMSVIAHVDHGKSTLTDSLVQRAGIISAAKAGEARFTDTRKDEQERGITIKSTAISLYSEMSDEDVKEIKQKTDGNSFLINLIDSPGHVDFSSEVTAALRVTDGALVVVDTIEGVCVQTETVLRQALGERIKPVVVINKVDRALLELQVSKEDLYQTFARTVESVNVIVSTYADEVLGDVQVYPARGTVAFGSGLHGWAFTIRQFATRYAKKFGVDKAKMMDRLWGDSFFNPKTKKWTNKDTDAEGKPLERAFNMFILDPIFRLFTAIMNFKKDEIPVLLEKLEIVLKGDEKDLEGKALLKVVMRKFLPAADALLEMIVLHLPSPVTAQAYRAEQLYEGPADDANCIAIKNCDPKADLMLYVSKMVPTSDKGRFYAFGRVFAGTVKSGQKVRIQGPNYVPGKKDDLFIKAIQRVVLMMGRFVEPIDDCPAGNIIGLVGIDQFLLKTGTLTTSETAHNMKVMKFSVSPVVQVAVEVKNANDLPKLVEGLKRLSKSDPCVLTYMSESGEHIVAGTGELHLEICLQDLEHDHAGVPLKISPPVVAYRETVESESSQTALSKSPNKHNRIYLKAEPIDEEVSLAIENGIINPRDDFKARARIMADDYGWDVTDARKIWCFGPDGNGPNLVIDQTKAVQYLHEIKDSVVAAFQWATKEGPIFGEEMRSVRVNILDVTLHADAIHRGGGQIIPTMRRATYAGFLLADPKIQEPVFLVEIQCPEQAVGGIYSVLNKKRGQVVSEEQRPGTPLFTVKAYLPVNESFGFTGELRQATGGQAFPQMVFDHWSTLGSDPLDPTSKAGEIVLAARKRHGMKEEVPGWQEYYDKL

B1: ribosomal protein P0 of the S. cerevisiae 60S subunit (P stalk) (natural protein, UniProt P05317 1-312, looked up)
chain: MGGIREKKAEYFAKLREYLEEYKSLFVVGVDNVSSQQMHEVRKELRGRAVVLMGKNTMVRRAIRGFLSDLPDFEKLLPFVKGNVGFVFTNEPLTEIKNVIVSNRVAAPARAGAVAPEDIWVRAVNTGMEPGKTSFFQALGVPTKIARGTIEIVSDVKVVDAGNKVGQSEASLLNLLNISPFTFGLTVVQVYDNGQVFPSSILDITDEELVSHFVSAVSTIASISLAIGYPTLPSVGHTLINNYKDLLAVAIAASYHYPEIEDLVDRIENPEKYAAAAPAATSAASGDAAPAEEAAAEEEEESDDDMGFGLFD
notes: 60S acidic ribosomal protein P0 (uL10), S. cerevisiae; part of the P stalk of the 60S subunit; Stood in the assay as a subunit of the 60S ribosomal subunit within the 80S ribosome, not as an isolated protein; also called eukaryote-specific protein P0; source: endogenous, in 60S subunits from 80S ribosomes purified from S. cerevisiae strain W303
binding result: binds
